In patent US20220112276A1 (Janssen / Centocor, published 2022):

T1: rat pIgR extracellular domain (rat, UniProt P15083 19-643)
T1 construct: extracellular domain
T1 sequence (looked up): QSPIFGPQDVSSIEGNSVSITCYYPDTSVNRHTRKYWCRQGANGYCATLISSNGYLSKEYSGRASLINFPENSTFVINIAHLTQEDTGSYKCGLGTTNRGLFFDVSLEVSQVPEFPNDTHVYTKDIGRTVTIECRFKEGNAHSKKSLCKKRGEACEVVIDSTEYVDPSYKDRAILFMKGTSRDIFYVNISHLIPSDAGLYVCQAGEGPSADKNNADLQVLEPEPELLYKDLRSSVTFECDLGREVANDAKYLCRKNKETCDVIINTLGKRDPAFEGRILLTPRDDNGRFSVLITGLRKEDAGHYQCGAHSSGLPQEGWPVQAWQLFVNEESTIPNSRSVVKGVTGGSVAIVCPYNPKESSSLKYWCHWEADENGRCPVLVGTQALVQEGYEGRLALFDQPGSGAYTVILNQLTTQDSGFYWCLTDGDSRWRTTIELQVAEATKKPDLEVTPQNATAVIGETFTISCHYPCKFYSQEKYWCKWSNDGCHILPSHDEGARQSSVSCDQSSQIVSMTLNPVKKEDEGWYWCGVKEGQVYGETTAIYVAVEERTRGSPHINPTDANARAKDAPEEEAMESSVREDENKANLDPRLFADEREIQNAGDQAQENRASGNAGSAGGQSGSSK

T2: mouse pIgR extracellular domain (ECD) (mouse, UniProt O70570 19-645)
T2 construct: Bought from R&D Systems (Cat 2800-PG-050); also called mpIgR ECD
T2 sequence: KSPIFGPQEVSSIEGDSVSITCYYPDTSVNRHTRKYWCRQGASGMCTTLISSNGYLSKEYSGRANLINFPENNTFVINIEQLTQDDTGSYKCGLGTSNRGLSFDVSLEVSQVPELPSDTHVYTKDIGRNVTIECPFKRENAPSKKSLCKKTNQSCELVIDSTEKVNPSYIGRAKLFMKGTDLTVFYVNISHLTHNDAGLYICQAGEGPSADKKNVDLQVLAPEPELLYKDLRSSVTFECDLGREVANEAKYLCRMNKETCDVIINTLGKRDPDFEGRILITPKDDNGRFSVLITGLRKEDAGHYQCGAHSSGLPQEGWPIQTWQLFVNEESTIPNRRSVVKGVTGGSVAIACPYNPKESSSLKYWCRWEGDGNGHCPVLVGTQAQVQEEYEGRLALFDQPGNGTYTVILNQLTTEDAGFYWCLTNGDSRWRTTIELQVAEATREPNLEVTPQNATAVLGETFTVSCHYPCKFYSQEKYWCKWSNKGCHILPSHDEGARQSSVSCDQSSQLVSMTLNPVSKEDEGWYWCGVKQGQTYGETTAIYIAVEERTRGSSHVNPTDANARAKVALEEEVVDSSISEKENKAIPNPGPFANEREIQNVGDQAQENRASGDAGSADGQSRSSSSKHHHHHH


Columns and labels:
Test in all cases: SPR, VHH captured by anti-Fc, ECD analyte
[1] = molecular target: T1, rat pIgR extracellular domain
Outline: (§1)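 Single-cycle kinetics: ECD analyte from 30 nM, 3-fold series, low to high, with 30 min off-rate monitoring, over VHH captured at 0.5 ug/ml (~200-300 RU). HBSP plus 100 ug/ml BSA at 30 μL/min. Reference cell and buffer blank subtracted; global 1:1 Langmuir fit gave kon, koff, KD.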

[2] = molecular target: T2, mouse pIgR extracellular domain (ECD)
Outline: as §1

[3] = molecular target: T3, human pIgR extracellular domain (ECD) (human, UniProt P01833 19-638)
T3 construct: Bought from R&D Systems (Cat 2717-PG-050); also called hpIgR ECD
Outline: as §1

[4] = molecular target: T4, cynomolgus monkey pIgR extracellular domain (cynomolgus monkey, UniProt A0A2K5WMU9 19-638)
T4 construct: extracellular domain
Outline: as §1

T3 sequence (P01833 other isoform, or with tags, fused parts or gaps): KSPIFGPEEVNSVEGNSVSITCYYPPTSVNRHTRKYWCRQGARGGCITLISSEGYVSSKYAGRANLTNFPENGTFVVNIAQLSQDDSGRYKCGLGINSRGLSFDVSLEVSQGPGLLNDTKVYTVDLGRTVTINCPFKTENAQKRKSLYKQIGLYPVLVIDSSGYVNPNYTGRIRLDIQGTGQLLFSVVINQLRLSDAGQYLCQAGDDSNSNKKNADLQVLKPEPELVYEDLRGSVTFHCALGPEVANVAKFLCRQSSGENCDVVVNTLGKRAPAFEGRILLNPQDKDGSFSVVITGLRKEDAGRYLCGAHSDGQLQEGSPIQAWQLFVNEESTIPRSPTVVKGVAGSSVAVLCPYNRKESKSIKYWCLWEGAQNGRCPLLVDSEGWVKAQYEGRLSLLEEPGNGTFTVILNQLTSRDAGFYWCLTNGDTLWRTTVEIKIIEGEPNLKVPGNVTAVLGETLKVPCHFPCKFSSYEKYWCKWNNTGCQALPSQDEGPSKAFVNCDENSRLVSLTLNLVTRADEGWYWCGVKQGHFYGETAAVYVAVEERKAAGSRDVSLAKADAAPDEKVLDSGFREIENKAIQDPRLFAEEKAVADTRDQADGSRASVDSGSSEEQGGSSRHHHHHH
T4 sequence (A0A2K5WMU9 entry or part of it): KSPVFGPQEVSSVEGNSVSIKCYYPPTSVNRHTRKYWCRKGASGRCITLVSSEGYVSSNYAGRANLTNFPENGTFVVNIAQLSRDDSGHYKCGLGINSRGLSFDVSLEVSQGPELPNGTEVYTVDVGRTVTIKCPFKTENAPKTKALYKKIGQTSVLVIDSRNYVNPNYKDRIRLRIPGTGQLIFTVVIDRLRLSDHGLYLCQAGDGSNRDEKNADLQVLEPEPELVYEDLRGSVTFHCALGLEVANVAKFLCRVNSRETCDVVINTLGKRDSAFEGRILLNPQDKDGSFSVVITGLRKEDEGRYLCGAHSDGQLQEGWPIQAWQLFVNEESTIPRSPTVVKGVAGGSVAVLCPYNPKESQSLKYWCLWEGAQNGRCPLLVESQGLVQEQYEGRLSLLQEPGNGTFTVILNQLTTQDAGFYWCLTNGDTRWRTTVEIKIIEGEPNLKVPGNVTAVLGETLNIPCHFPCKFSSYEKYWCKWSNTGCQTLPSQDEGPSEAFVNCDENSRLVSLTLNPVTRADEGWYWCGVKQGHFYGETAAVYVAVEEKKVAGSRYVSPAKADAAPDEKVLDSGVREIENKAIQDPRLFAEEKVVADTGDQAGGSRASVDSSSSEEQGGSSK

| Binder | Kd [1] | Kd [2] | Kd [3] | Kd [4] |
| --- | --- | --- | --- | --- |
| 01H04R3 VHH Mono-Fc (Fc fusion) EVQLVESGGGLVQPGGSLRLSCAASGRTFSSLTMAWFRRAPGKEREFVAAQKWAGATTYTYYGDSVKGRFTISRDNAKDTVYLQMNSLKPVDTAIYYCAADTSSIVGDPRSPNRYDYWGQGTQVTVSSSPAPELLGGPSVFLFPPKPKDTLMISRTPEVTCVVVDVSHEDPEVKFNWYVDGVEVHNAKTKPREEQYNSTYRVVSVLTVLHQDWLNGKEYKCKVSNKALPAPIEKTISKAKGQPREPQVYTKPPSREEMTKNQVSLSCLVKGFYPSDIAVEWESNGQPENNYKTTVPVLDSDGSFRLASYLTVDKSRWQQGNVFSCSVMHEALHNHYTQKSLSLSPGK | 88.2 nM | 101 nM |  |  |
| 01C02R3LS VHH Mono-Fc (Fc fusion) QVQLVESGGGLVQAGDSLRLSCAASGRTRTTYGMGWFRQAPGKEREFVTTITWSGSTNYKYYADSVKGRFTISRDNAKNTVYLQMNSLKPDDTAVYYCAASTVLTDPRVPTEYDYWGQGTQVTVSSSPAPELLGGPSVFLFPPKPKDTLMISRTPEVTCVVVDVSHEDPEVKFNWYVDGVEVHNAKTKPREEQYNSTYRVVSVLTVLHQDWLNGKEYKCKVSNKALPAPIEKTISKAKGQPREPQVYTKPPSREEMTKNQVSLSCLVKGFYPSDIAVEWESNGQPENNYKTTVPVLDSDGSFRLASYLTVDKSRWQQGNVFSCSVMHEALHNHYTQKSLSLSPGK | 2.77 nM | 4.96 nM | 8.62 nM | 3.09 nM |
| 01E01R3LS VHH Mono-Fc (Fc fusion) QVQLVESGGGLVQAGGSLRLSCAASGRSFSSYNMGWFRQAPGKERDLVAVVTWSGGGTSYADSVKGRFTIARDNANARLYLEMTSLKPEDTAIYYCAATQDWYGGTRAFRAASFHSWGQGTQVTVSSSPAPELLGGPSVFLFPPKPKDTLMISRTPEVTCVVVDVSHEDPEVKFNWYVDGVEVHNAKTKPREEQYNSTYRVVSVLTVLHQDWLNGKEYKCKVSNKALPAPIEKTISKAKGQPREPQVYTKPPSREEMTKNQVSLSCLVKGFYPSDIAVEWESNGQPENNYKTTVPVLDSDGSFRLASYLTVDKSRWQQGNVFSCSVMHEALHNHYTQKSLSLSPGK | 35.2 nM | 34.5 nM | 14.5 nM |  |
| 01A09R3LS VHH Mono-Fc (Fc fusion) QVQLVESGGGLVQAGGSLRLSCAASGRSFSSYNMVWLRQAPGKEREVVAAVTWSGGGTSYADSVKGRFTISRDNANVRVYLQMTGLKPEDTAIYYCAATQDWYGGSRAFRAASFHSWGQGTLVTVSSSPAPELLGGPSVFLFPPKPKDTLMISRTPEVTCVVVDVSHEDPEVKFNWYVDGVEVHNAKTKPREEQYNSTYRVVSVLTVLHQDWLNGKEYKCKVSNKALPAPIEKTISKAKGQPREPQVYTKPPSREEMTKNQVSLSCLVKGFYPSDIAVEWESNGQPENNYKTTVPVLDSDGSFRLASYLTVDKSRWQQGNVFSCSVMHEALHNHYTQKSLSLSPGK | 22.5 nM | 35.2 nM |  |  |
| 02D07R3 VHH Mono-Fc (Fc fusion) EVQLVESGGGLVQPGGQLRLSCAASGSIASIRDMAWYRQAPGKQRELVAIFARGGTTHYADSVKGRFTISRDNAKNTVYLQVNSLEPEDTAAYYCNAEVATMFQPGFRDYWGRGTQVTVSSSPAPELLGGPSVFLFPPKPKDTLMISRTPEVTCVVVDVSHEDPEVKFNWYVDGVEVHNAKTKPREEQYNSTYRVVSVLTVLHQDWLNGKEYKCKVSNKALPAPIEKTISKAKGQPREPQVYTKPPSREEMTKNQVSLSCLVKGFYPSDIAVEWESNGQPENNYKTTVPVLDSDGSFRLASYLTVDKSRWQQGNVFSCSVMHEALHNHYTQKSLSLSPGK | 2.37 nM | 4.38 nM |  |  |
| 01B11R3LS VHH Mono-Fc (Fc fusion) EVQLVESGGGVVQAEDSLRLSCAAPGLPFSSSRMGWFRQAPGKEREFVAAIGWSGRSTYRYYGDSVKGRFTVSGDNAKNTLDLQMKGLKPEDTAVYYCAADPDYYGDYRTSGAWRYWGQGTQVTVSSSPAPELLGGPSVFLFPPKPKDTLMISRTPEVTCVVVDVSHEDPEVKFNWYVDGVEVHNAKTKPREEQYNSTYRVVSVLTVLHQDWLNGKEYKCKVSNKALPAPIEKTISKAKGQPREPQVYTKPPSREEMTKNQVSLSCLVKGFYPSDIAVEWESNGQPENNYKTTVPVLDSDGSFRLASYLTVDKSRWQQGNVFSCSVMHEALHNHYTQKSLSLSPGK | 19.9 nM | 12.8 nM |  |  |
| 01B03R2LS VHH Mono-Fc (Fc fusion) EVQLVESGGGLVQAGDSLRLSCAASGRTGSSGAMGWFRQGPGKEREFVAALMWRNTVTYSYYADSVKGRFTISRDNAKNTAYLQMNSLKPEDTAVYYCAADPDTYGDPRNSGAYSYWGQGTLVTVSSSPAPELLGGPSVFLFPPKPKDTLMISRTPEVTCVVVDVSHEDPEVKFNWYVDGVEVHNAKTKPREEQYNSTYRVVSVLTVLHQDWLNGKEYKCKVSNKALPAPIEKTISKAKGQPREPQVYTKPPSREEMTKNQVSLSCLVKGFYPSDIAVEWESNGQPENNYKTTVPVLDSDGSFRLASYLTVDKSRWQQGNVFSCSVMHEALHNHYTQKSLSLSPGK | 11 nM | 6.33 nM |  |  |

Continued by falling Kd [1], values first:

| Kd [1] | Kd [2] | Kd [3] | Kd [4] | Binder |
| --- | --- | --- | --- | --- |
| 96.9 nM | 61.8 nM |  |  | 01E10R2 VHH Mono-Fc (Fc fusion) EVQLVESGGGLVQAGGSLRLSCAASGRTLSVDRMGWFRQVPGKEREFIAARTWSGSSTYIYYADSVKGRFAISRDRAKNTIDLQMNSLKLEDTGAYYCAADVRGGSYDVRRDEGYAYWGQGTLVTVSSSPAPELLGGPSVFLFPPKPKDTLMISRTPEVTCVVVDVSHEDPEVKFNWYVDGVEVHNAKTKPREEQYNSTYRVVSVLTVLHQDWLNGKEYKCKVSNKALPAPIEKTISKAKGQPREPQVYTKPPSREEMTKNQVSLSCLVKGFYPSDIAVEWESNGQPENNYKTTVPVLDSDGSFRLASYLTVDKSRWQQGNVFSCSVMHEALHNHYTQKSLSLSPGK |
| 73.5 nM | 32.3 nM |  |  | 02G06R3 VHH Mono-Fc (Fc fusion) EVQLVESGGGLVQAGGSLRLSCAASGRTFDSYAMGWFRQAPGKEREFVAAISWTGGSTDYADSVKGRFTISRDNAKNTVYLQMDSLKPEDTAVYYCAAEVVGRDVTTMYRVSGLEYEYDYWGQGTQVTVSSSPAPELLGGPSVFLFPPKPKDTLMISRTPEVTCVVVDVSHEDPEVKFNWYVDGVEVHNAKTKPREEQYNSTYRVVSVLTVLHQDWLNGKEYKCKVSNKALPAPIEKTISKAKGQPREPQVYTKPPSREEMTKNQVSLSCLVKGFYPSDIAVEWESNGQPENNYKTTVPVLDSDGSFRLASYLTVDKSRWQQGNVFSCSVMHEALHNHYTQKSLSLSPGK |
| 6.45 nM | 6.15 nM |  |  | 02F10R3 VHH Mono-Fc (Fc fusion) EVQLVESGGGLVQPGGSLRLSCVVSGSFFSLRDMGWYRQAPGKERELVGIFTRGGTTYYADSVKGRFTISRDNAKNTVDLQMNSLKPEDTAVYTCNAEIRQYSANLYRDFWGQGTQVTVSSSPAPELLGGPSVFLFPPKPKDTLMISRTPEVTCVVVDVSHEDPEVKFNWYVDGVEVHNAKTKPREEQYNSTYRVVSVLTVLHQDWLNGKEYKCKVSNKALPAPIEKTISKAKGQPREPQVYTKPPSREEMTKNQVSLSCLVKGFYPSDIAVEWESNGQPENNYKTTVPVLDSDGSFRLASYLTVDKSRWQQGNVFSCSVMHEALHNHYTQKSLSLSPGK |
| 1.58 nM | 3.75 nM | 8.4 nM | 2.19 nM | 01B10R3L VHH Mono-Fc (Fc fusion) QVQLVESGGGLVQAGDSLRLSCAASGRTFTTYVMGWFRQPPGKEREFVATISWSGSTTYKYYADSVKGRFTISRDNAKNTVYLQMNSLKPEDTAVYYCAASTVVADPRAPNEYDYWGQGTQVTVSSSPAPELLGGPSVFLFPPKPKDTLMISRTPEVTCVVVDVSHEDPEVKFNWYVDGVEVHNAKTKPREEQYNSTYRVVSVLTVLHQDWLNGKEYKCKVSNKALPAPIEKTISKAKGQPREPQVYTKPPSREEMTKNQVSLSCLVKGFYPSDIAVEWESNGQPENNYKTTVPVLDSDGSFRLASYLTVDKSRWQQGNVFSCSVMHEALHNHYTQKSLSLSPGK |
